Values joined by “and” are separate entries in the source; they are usually repeats but may differ in a detail not shown here. Identical values can stand only once.
Molecular target: His-EutM (UniProt P41791)
Experiment: pull-down

UniProt P41791, sequence (P41791 whole entry): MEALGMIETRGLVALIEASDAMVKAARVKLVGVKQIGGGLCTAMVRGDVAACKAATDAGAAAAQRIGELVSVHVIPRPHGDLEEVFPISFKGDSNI

Substance | molar ratio of His-EutM to dual-modified EutM in the purified hybrid scaffold
SnoopT-EutM-SpyT | 3.3 :1 and 7.6 :1
SpyC-EutM-SnoopC | 3.9 :1 and 8.8 :1
